T1: Human RAD51 (human, UniProt Q06609 1-339)
T1 sequence (looked up): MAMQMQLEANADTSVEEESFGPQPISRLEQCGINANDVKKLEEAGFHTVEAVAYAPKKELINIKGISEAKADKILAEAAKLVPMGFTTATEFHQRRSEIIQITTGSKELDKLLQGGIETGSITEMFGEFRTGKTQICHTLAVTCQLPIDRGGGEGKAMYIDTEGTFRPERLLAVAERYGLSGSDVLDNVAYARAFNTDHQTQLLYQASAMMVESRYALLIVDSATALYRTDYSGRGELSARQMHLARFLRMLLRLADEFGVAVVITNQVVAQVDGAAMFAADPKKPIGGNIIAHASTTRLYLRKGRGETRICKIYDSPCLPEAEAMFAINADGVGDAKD


How the values were obtained:
[1] = biological target: RAD51 (human, UniProt Q06609 1-339); assay: EMSA
[2] = biological target: T1, Human RAD51; assay: pull-down

binding result [2] | Binder | binding result [1]
 | 49-mer dsDNA (dsDNA) DNA 1: GTCCCAGGCCATTACAGATCAATCCTGAGCATGTTTACCAAGCGCATTG DNA 2: CAATGCGCTTGGTAAACATGCTCAGGATTGATCTGTAATGGCCTGGGAC | binds
binds | Human GEMIN2 (natural protein, UniProt O14893 1-280, looked up) MRRAELAGLKTMAWVPAESAVEELMPRLLPVEPCDLTEGFDPSVPPRTPQEYLRRVQIEAAQCPDVVVAQIDPKKLKRKQSVNISLSGCQPAPEGYSPTLQWQQQQVAQFSTVRQNVNKHRSHWKSQQLDSNVTMPKSEDEEGWKKFCLGEKLCADGAVGPATNESPGIDYVQIGFPPLLSIVSRMNQATVTSVLEYLSNWFGERDFTPELGRWLYALLACLEKPLLPEAHSLIRQLARRCSEVRLLVDSKDDERVPALNLLICLVSRYFDQRDLADEPS | 

Reference: publication PMC2926616 (Nucleic Acids Research, 2010)
